± gives the uncertainty stated by the source.

B1: POU domain, class 3, transcription factor 2, residues 356 to 411; numbered along this chain, P20265 (parent)
chain: KKRTSIEVSVKGALESHFLKCPKPSAQEITSLADSLQLEKEVVRVWFCNRRQKEKR

The variants in this data set derive from B1. Briefly: abundance fitness (aPCA) (normalised: wild type 0, dead -1); higher = more abundant; growth selection in yeast, the domain comes from the species named. The note with it: Homo sapiens.
As for KKRTSICVSVKGALESHFLKCPKPSAQEITSLADSLQLEKEVVRVWFCNRRQKEKR [E7C], the abundance fitness came out at 0.014 ± 0.073. Consider KKRTSIHVSVKGALESHFLKCPKPSAQEITSLADSLQLEKEVVRVWFCNRRQKEKR [E7H], for which the abundance fitness came to 0.028 ± 0.069. With KKRTSIDVSVKGALESHFLKCPKPSAQEITSLADSLQLEKEVVRVWFCNRRQKEKR [E7D], the abundance fitness was determined as 0.066 ± 0.077. The result for KKRTSIGVSVKGALESHFLKCPKPSAQEITSLADSLQLEKEVVRVWFCNRRQKEKR [E7G] reads 0.077 ± 0.081. Next, KKRTSINVSVKGALESHFLKCPKPSAQEITSLADSLQLEKEVVRVWFCNRRQKEKR [E7N]: 0.138 ± 0.079; KKRTSIYVSVKGALESHFLKCPKPSAQEITSLADSLQLEKEVVRVWFCNRRQKEKR [E7Y]: -0.358 ± 0.072; KKRTSIVVSVKGALESHFLKCPKPSAQEITSLADSLQLEKEVVRVWFCNRRQKEKR [E7V]: -0.21 ± 0.071.

As for KKRTSIWVSVKGALESHFLKCPKPSAQEITSLADSLQLEKEVVRVWFCNRRQKEKR [E7W], the abundance fitness is -0.242 ± 0.1. Next, KKRTSIKVSVKGALESHFLKCPKPSAQEITSLADSLQLEKEVVRVWFCNRRQKEKR [E7K]: -0.112 ± 0.092; KKRTSILVSVKGALESHFLKCPKPSAQEITSLADSLQLEKEVVRVWFCNRRQKEKR [E7L]: -0.177 ± 0.057. In the case of KKRTSIIVSVKGALESHFLKCPKPSAQEITSLADSLQLEKEVVRVWFCNRRQKEKR [E7I], the abundance fitness was -0.116 ± 0.081. As to KKRTSIMVSVKGALESHFLKCPKPSAQEITSLADSLQLEKEVVRVWFCNRRQKEKR [E7M], the abundance fitness is 0.032 ± 0.096. As to KKRTSISVSVKGALESHFLKCPKPSAQEITSLADSLQLEKEVVRVWFCNRRQKEKR [E7S], the abundance fitness came to 0.191 ± 0.058.

In the case of KKRTSIRVSVKGALESHFLKCPKPSAQEITSLADSLQLEKEVVRVWFCNRRQKEKR [E7R], the abundance fitness is -0.014 ± 0.066. Next, KKRTSITVSVKGALESHFLKCPKPSAQEITSLADSLQLEKEVVRVWFCNRRQKEKR [E7T]: 0.221 ± 0.06; KKRTSIAVSVKGALESHFLKCPKPSAQEITSLADSLQLEKEVVRVWFCNRRQKEKR [E7A]: -0.039 ± 0.071.

In the case of KKRTSIETSVKGALESHFLKCPKPSAQEITSLADSLQLEKEVVRVWFCNRRQKEKR [V8T], the abundance fitness turned out to be 0.011 ± 0.11.

Turning to KKRTSIENSVKGALESHFLKCPKPSAQEITSLADSLQLEKEVVRVWFCNRRQKEKR [V8N], the abundance fitness amounted to 0.212 ± 0.19. The result for KKRTSIEHSVKGALESHFLKCPKPSAQEITSLADSLQLEKEVVRVWFCNRRQKEKR [V8H] reads 0.128 ± 0.15. As to KKRTSIEQSVKGALESHFLKCPKPSAQEITSLADSLQLEKEVVRVWFCNRRQKEKR [V8Q], the abundance fitness was found to be 0.069 ± 0.13. Next, KKRTSIEASVKGALESHFLKCPKPSAQEITSLADSLQLEKEVVRVWFCNRRQKEKR [V8A]: 0.202 ± 0.11; KKRTSIELSVKGALESHFLKCPKPSAQEITSLADSLQLEKEVVRVWFCNRRQKEKR [V8L]: 0.007 ± 0.09; KKRTSIESSVKGALESHFLKCPKPSAQEITSLADSLQLEKEVVRVWFCNRRQKEKR [V8S]: 0.096 ± 0.079. With KKRTSIEFSVKGALESHFLKCPKPSAQEITSLADSLQLEKEVVRVWFCNRRQKEKR [V8F], the abundance fitness was determined as 0.065 ± 0.18. Next, KKRTSIEISVKGALESHFLKCPKPSAQEITSLADSLQLEKEVVRVWFCNRRQKEKR [V8I]: 0.051 ± 0.1.

For the variant KKRTSIEESVKGALESHFLKCPKPSAQEITSLADSLQLEKEVVRVWFCNRRQKEKR [V8E], the abundance fitness was 0.093 ± 0.12. The result for KKRTSIEDSVKGALESHFLKCPKPSAQEITSLADSLQLEKEVVRVWFCNRRQKEKR [V8D] reads -0.064 ± 0.14. The result for KKRTSIEWSVKGALESHFLKCPKPSAQEITSLADSLQLEKEVVRVWFCNRRQKEKR [V8W] reads -0.131 ± 0.1; that for KKRTSIEGSVKGALESHFLKCPKPSAQEITSLADSLQLEKEVVRVWFCNRRQKEKR [V8G], 0.091 ± 0.075; that for KKRTSIECSVKGALESHFLKCPKPSAQEITSLADSLQLEKEVVRVWFCNRRQKEKR [V8C], -0.327 ± 0.14. Take KKRTSIEPSVKGALESHFLKCPKPSAQEITSLADSLQLEKEVVRVWFCNRRQKEKR [V8P]: the abundance fitness worked out at 0.119 ± 0.17.

Turning to KKRTSIERSVKGALESHFLKCPKPSAQEITSLADSLQLEKEVVRVWFCNRRQKEKR [V8R], the abundance fitness amounted to 0.049 ± 0.094. Next, KKRTSIEMSVKGALESHFLKCPKPSAQEITSLADSLQLEKEVVRVWFCNRRQKEKR [V8M]: 0.046 ± 0.11. The result for KKRTSREVSVKGALESHFLKCPKPSAQEITSLADSLQLEKEVVRVWFCNRRQKEKR [I6R] reads -0.117 ± 0.084.

As for KKRTSTEVSVKGALESHFLKCPKPSAQEITSLADSLQLEKEVVRVWFCNRRQKEKR [I6T], the abundance fitness was -0.111 ± 0.16. Next, KKRTSHEVSVKGALESHFLKCPKPSAQEITSLADSLQLEKEVVRVWFCNRRQKEKR [I6H]: -0.247 ± 0.17; KKRTSMEVSVKGALESHFLKCPKPSAQEITSLADSLQLEKEVVRVWFCNRRQKEKR [I6M]: -0.049 ± 0.17; KKRTSKEVSVKGALESHFLKCPKPSAQEITSLADSLQLEKEVVRVWFCNRRQKEKR [I6K]: 0.103 ± 0.15. Next, KKRTSFEVSVKGALESHFLKCPKPSAQEITSLADSLQLEKEVVRVWFCNRRQKEKR [I6F]: -0.438 ± 0.17; KKRTSWEVSVKGALESHFLKCPKPSAQEITSLADSLQLEKEVVRVWFCNRRQKEKR [I6W]: -0.289 ± 0.11; KKRTSQEVSVKGALESHFLKCPKPSAQEITSLADSLQLEKEVVRVWFCNRRQKEKR [I6Q]: -0.226 ± 0.19. For the variant KKRTSLEVSVKGALESHFLKCPKPSAQEITSLADSLQLEKEVVRVWFCNRRQKEKR [I6L], the abundance fitness worked out at 0.045 ± 0.089. The result for KKRTSAEVSVKGALESHFLKCPKPSAQEITSLADSLQLEKEVVRVWFCNRRQKEKR [I6A] reads -0.069 ± 0.14; that for KKRTSGEVSVKGALESHFLKCPKPSAQEITSLADSLQLEKEVVRVWFCNRRQKEKR [I6G], -0.119 ± 0.071. The result for KKRTSYEVSVKGALESHFLKCPKPSAQEITSLADSLQLEKEVVRVWFCNRRQKEKR [I6Y] reads -0.239 ± 0.16; that for KKRTSSEVSVKGALESHFLKCPKPSAQEITSLADSLQLEKEVVRVWFCNRRQKEKR [I6S], -0.053 ± 0.12; that for KKRTSDEVSVKGALESHFLKCPKPSAQEITSLADSLQLEKEVVRVWFCNRRQKEKR [I6D], -0.072 ± 0.13.

The values are drawn from the Human Domainome abundance scans (Beltran et al. 2025).
